Like-named read-outs stand apart in the source and are kept apart here.
B6: FliC (flagellin) of Salmonella enterica (natural protein, UniProt P06179 1-495, looked up)
chain: MAQVINTNSLSLLTQNNLNKSQSALGTAIERLSSGLRINSAKDDAAGQAIANRFTANIKGLTQASRNANDGISIAQTTEGALNEINNNLQRVRELAVQSANSTNSQSDLDSIQAEITQRLNEIDRVSGQTQFNGVKVLAQDNTLTIQVGANDGETIDIDLKQINSQTLGLDTLNVQQKYKVSDTAATVTGYADTTIALDNSTFKASATGLGGTDQKIDGDLKFDDTTGKYYAKVTVTGGTGKDGYYEVSVDKTNGEVTLAGGATSPLTGGLPATATEDVKNVQVANADLTEAKAALTAAGVTGTASVVKMSYTDNNGKTIDGGLAVKVGDDYYSATQNKDGSISINTTKYTADDGTSKTALNKLGGADGKTEVVSIGGKTYAASKAEGHNFKAQPDLAEAAATTTENPLQKIDAALAQVDTLRSDLGAVQNRFNSAITNLGNTVNNLTSARSRIEDSDYATEVSNMSRAQILQQAGTSVLAQANQVPQNVLSLLR

What was measured:
Experiment in all cases: cryo-EM structure
[1] = target: the molecule itself
[2] = target: B6
[3] = target: the molecule itself; remark: listed apart in the source
[4] = target: B6; remark: listed apart in the source
[5] = target: the molecule itself; remark: listed apart in the source

B1: FlgK (hook-filament junction protein) of Salmonella enterica (natural protein, UniProt P0A1J5 1-553, looked up)
chain: MSSLINHAMSGLNAAQAALNTVSNNINNYNVAGYTRQTTILAQANSTLGAGGWIGNGVYVSGVQREYDAFITNQLRGAQNQSSGLTTRYEQMSKIDNLLADKSSSLSGSLQSFFTSLQTLVSNAEDPAARQALIGKAEGLVNQFKTTDQYLRDQDKQVNIAIGSSVAQINNYAKQIANLNDQISRMTGVGAGASPNDLLDQRDQLVSELNKIVGVEVSVQDGGTYNLTMANGYTLVQGSTARQLAAVPSSADPTRTTVAYVDEAAGNIEIPEKLLNTGSLGGLLTFRSQDLDQTRNTLGQLALAFADAFNAQHTKGYDADGNKGKDFFSIGSPVVYSNSNNADKTVSLTAKVVDSTKVQATDYKIVFDGTDWQVTRTADNTTFTATKDADGKLEIDGLKVTVGTGAQKNDSFLLKPVSNAIVDMNVKVTNEAEIAMASESKLDPDVDTGDSDNRNGQALLDLQNSNVVGGNKTFNDAYATLVSDVGNKTSTLKTSSTTQANVVKQLYKQQQSVSGVNLDEEYGNLQRYQQYYLANAQVLQTANALFDALLNIR
[1]
  stoichiometry N: 11 subunits

B2: FlgE (flagellar hook protein) of Salmonella enterica (natural protein, UniProt P0A1J1 1-403, looked up)
chain: MSFSQAVSGLNAAATNLDVIGNNIANSATYGFKSGTASFADMFAGSKVGLGVKVAGITQDFTDGTTTNTGRGLDVAISQNGFFRLVDSNGSVFYSRNGQFKLDENRNLVNMQGMQLTGYPATGTPPTIQQGANPAPITIPNTLMAAKSTTTASMQINLNSTDPVPSKTPFSVSDADSYNKKGTVTVYDSQGNAHDMNVYFVKTKDNEWAVYTHDSSDPAATAPTTASTTLKFNENGILESGGTVNITTGTINGATAATFSLSFLNSMQQNTGANNIVATNQNGYKPGDLVSYQINNDGTVVGNYSNEQEQVLGQIVLANFANNEGLASQGDNVWAATQASGVALLGTAGSGNFGKLTNGALEASNVDLSKELVNMIVAQRNYQSNAQTIKTQDQILNTLVNLR
[1]
  binding result: binds

B3: FlgL (hook-filament junction protein) of Salmonella enterica (natural protein, UniProt P16326 1-317, looked up)
chain: MRISTQMMYEQNMSGITNSQAEWMKLGEQMSTGKRVTNPSDDPIAASQAVVLSQAQAQNSQYALARTFATQKVSLEESVLSQVTTAIQTAQEKIVYAGNGTLSDDDRASLATDLQGIRDQLMNLANSTDGNGRYIFAGYKTEAAPFDQATGGYHGGEKSVTQQVDSARTMVIGHTGAQIFNSITSNAVPEPDGSDSEKNLFVMLDTAIAALKTPVEGNNVEKEKAAAAIDKTNRGLKNSLNNVLTVRAELGTQLSELSTLDSLGSDRALGQKLQMSNLVDVDWNSVISSYVMQQAALQASYKTFTDMQGMSLFQLNR
[2]
  binding result: binds
[1]
  stoichiometry N: 11 subunits

B4: FlgL (hook-filament junction protein) of Campylobacter jejuni (natural protein, UniProt A0A5T0WDM5 1-750, looked up)
chain: MRITNKLNFTNSVNNSMGGQSALYQISQQLASGLKIQNSYEDASTYIDNTRLEYEIKTLEQVKESTSRAQEMTQNSMKALQDMVKLLEDFKVKVTQAASDSNSQTSREAIAKELERIKESIVQLANTSVNGQYLFAGSQVANKPFDSNGNYYGDKNNINVVTGAGTESPYNIPGWDLFFKADGDYKKQISTNVSFTDNRWDLNKDPDKTKYLTGDSKWQQLIGQGYVKDNSLDADKDFEYDDSKLDFPPTTLYVQGTKPDGTSFKSAVLVKPEDTLEDVMENIGALYGNTPNNKVVEVSMNDSGQIQITDLKQGNNKLDFHAVAFTPQADTKDELKNIIEAANQEGISMNEVTNRVMQAATAAPSNGDITKLNNPVTVTINNQQFTIDLKQTDFIKSKMTDTDGNAANGADYDNVYFEKNGNTVYGNVSQVIKGSNAYATDSTKLSEVMAGDSLNGTTLNLKVNSKGGNSYDVTINLQTSTVSYPDPNNPGQTISFPIMHTNPATGNSGVVTGSNDITYGQINDIIGMFAADKIPTTTIQANNGQINNADYTQIQQLMKDSQATVDVSMDYKGRISVTDKLSSGTNIEISLSDSQSGQFPAPPFTTTSTVQNGPNFSFSANNSLTIDEPNVDIIKDLDSMIDAVLKGNMRADSESENPRNTGMQGALERLDHLADHVSKLNTTMGAYHNTIEGVNTRTSFLSVNVQSIKSNVIDVDYGEAMMNLMQVQLAYQASLKASTTISQLSLLNYM
[3]
  stoichiometry N: 11 subunits

B5: FlgK (hook-filament junction protein) of Campylobacter jejuni (natural protein, UniProt Q0P8E9 1-608, looked up)
chain: MGIFGTLYTGVTGLKASEVQIATTGNNISNANATFYTRQRVVQTTNGYITTGGVQVGTGTAVESIVRLHDEYSYYKLKGASTQLEYTKYMASTLQEIAQRFPDLQNTGILQDLENYNKAWNDFASNPNENATKIALVKASQTLTESVNNTFATLDKIQKKVNDDIKNTVDEINRIGEEIATINKQIYGQEALPTEHANELRDRRDELELTLSKLVSAVASKNEINQDNRLDTTITDPGHQYNLSIEGFSIVDGINFHPLKLDYDDKNKSYSIYYETPDEKVRDLTAKISGGQLGAQLDLRGRNYSKSEGKYEDGIIQGYMDSLDTFAKTMINETNNLYASSAKSSVTSDYLSGLKGDIPLVNYDRTIQPGSFDIVIYDDKGDKKLTKTITIDVNTTMNDIMRQINANTDDNDNKNSNDDVDDHINASFSYDAKTGDGLFQINAKSGFKVAIEDKGTNFAGAFSIGGFFSGTDASDMKVKDSILNDPSTVRASSNGVDSGNDMANKIIQLQYKKVNFYNEDGTIDNLTMEEYYRKLTGKIASDGENNNVVNSSNETLYNSVYSEYQSKSGVNTNEELAALIQYQSSYGAAAKIVSTVDQMLDTLLGLKS
[3]
  stoichiometry N: 11 subunits

## B6
[1]
  binding result: binds

B7: FliD (flagellar filament cap protein) of Salmonella enterica (natural protein, UniProt P16328 1-467, looked up)
chain: MASISSLGVGSNLPLDQLLTDLTKNEKGRLTPITKQQSANSAKLTAYGTLKSALEKFQTANTALNKADLFKSTVASSTTEDLKVSTTAGAAAGTYKINVTQLAAAQSLATKTTFATTKEQLGDTSVTSRTIKIEQPGRKEPLEIKLDKGDTSMEAIRDAINDADSGIAASIVKVKENEFQLVLTANSGTDNTMKITVEGDTKLNDLLAYDSTTNTGNMQELVKAENAKLNVNGIDIERQSNTVTDAPQGITLTLTKKVTDATVTVTKDDTKAKEAIKSWVDAYNSLVDTFSSLTKYTAVEPGEEASDKNGALLGDSVVRTIQTGIRAQFANSGSNSAFKTMAEIGITQDGTSGKLKIDDDKLTKVLKDNTAAARELLVGDGKETGITTKIATEVKSYLADDGIIDNAQDNVNATLKSLTKQYLSVSNSIDETVARYKAQFTQLDTMMSKLNNTSSYLTQQFTAMNKS
[4]
  binding result: binds
[5]
  stoichiometry N: 5 subunits

B8: FliD (flagellar filament cap protein) of Campylobacter jejuni (natural protein, UniProt Q9PHW6 1-642, looked up)
chain: MAFGSLSSLGFGSGVLTQDTIDKLKEAEQKARIDPYTKKIEENTTKQKDLTEIKTKLLSFQTAVSSLADATVFAKRKVVGSISDNPPASLTVNSGVALQSMNINVTQLAQKDVYQSKGLANDGGFVNAQLNGTADLTFFSNGKEYTVTVDKNTTYRDLADKINEASGGEIVAKIVNTGEKGTPYRLTLTSKETGEDSAISFYAGKKDSNGKYQKDINAEKIFDDLGWGLDVSASIDPDKDKKGYGIKDASLHIQTAQNAEFTLDGIKMFRSSNTVTDLGVGMTLTLNKTGEINFDVQQDFEGVTKAMQDLVDAYNDLVTNLNAATDYNSETGTKGTLQGISEVNSIRSSILADLFDSQVVDGTTEDANGNKVNTKVMLSMQDFGLSLNDAGTLSFDSSKFEQKVKEDPDSTESFFSNITKYEDINHTGEVIKTGSLSKYLNSNGGNTNGLEFKPGDFTIVFNNQTYDLSKNSDGTNFKLTGKTEEELLQNLANHINSKGIEGLKVKVESYNQNNVTGFRLNFSGDGSSDFSIKGDANILKELGLSDVNITSKPIEGKGIFSKLKATLQEMTGKDGSITKYDESLTNDIKSLNTSKDSTQAMIDTRYDTMANQWLQYESILNKLNQQLNTVTNMINAANNSNN
[3]
  stoichiometry N: 5 subunits
